Measurements from patent publication US20100260668A1 (published 2010).

Target: T1, VEGF (UniProt P15692-4 27-191)
T1 construct: Bought reagent; also called vascular endothelial growth factor
Test: BIACORE SPR

T1 sequence (P15692 other isoform, or with tags, fused parts or gaps limits assumed): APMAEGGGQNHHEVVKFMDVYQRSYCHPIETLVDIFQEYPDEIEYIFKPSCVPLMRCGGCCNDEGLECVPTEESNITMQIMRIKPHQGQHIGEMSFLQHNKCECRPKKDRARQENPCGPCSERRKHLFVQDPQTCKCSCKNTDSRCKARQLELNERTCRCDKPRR

Row | Binder | Kd | koff | kon
1 | DVD509 (bispecific antibody, human IgG1, kappa, DVD-Ig; N-term; AB072 (DLL4), C-term; AB071 (VEGF); HC linker short, LC linker long; also called DVD509H; DVD509L) heavy: not shown light: DIQMTQSSSYLSVSLGGRVTITCKASDHINNWLAWYQQKPGNAPRLLISGATSLETGVPSRFSGSGSGKDYTLSITSLQTEDVATYYCQQYWSIPLTFGAGTKLELKRTVAAPSVFIFPPDIQMTQSPSSLSASVGDRVTITCRASQVIRRSLAWYQQKPGKAPKLLIYAASNLASGVPSRFSGSGSGTDFTLTISSLQPEDFATYYCQQSNTSPLTFGQGTKVEIKRTVAAPSVFIFPPSDEQLKSGTASVVCLLNNFYPREAKVQWKVDNALQSGNSQESVTEQDSKDSTYSLSSTLTLSKADYEKHKVYACEVTHQGLSSPVTKSFNRGEC | 61.3 pM | 7.83e-06 s⁻¹ | 128000 M⁻¹ s⁻¹
2 | DVD515 (bispecific antibody, human IgG1, kappa, DVD-Ig; N-term; AB073 (DLL4), C-term; AB071 (VEGF); HC linker short, LC linker short; also called DVD515H; DVD515L) heavy: not shown light: QAVVTQESALTTSPGETVTLTCRSSTGAVTTSNYANWVQEKPDHLFTGLIGGTNNRAPGVPARFSGSLIGDKAALTITGAQTEDEAIYFCALWYSNHWVFGGGTKLTVLGQPKAAPDIQMTQSPSSLSASVGDRVTITCRASQVIRRSLAWYQQKPGKAPKLLIYAASNLASGVPSRFSGSGSGTDFTLTISSLQPEDFATYYCQQSNTSPLTFGQGTKVEIKRTVAAPSVFIFPPSDEQLKSGTASVVCLLNNFYPREAKVQWKVDNALQSGNSQESVTEQDSKDSTYSLSSTLTLSKADYEKHKVYACEVTHQGLSSPVTKSFNRGEC | 1450 pM | 0.000585 s⁻¹ | 405000 M⁻¹ s⁻¹
3 | DVD479 (bispecific antibody, human IgG1, kappa, DVD-Ig; N-term; AB015 (DLL4), C-term; AB071 (VEGF); HC linker long, LC linker short; also called DVD479H; DVD479L) heavy: not shown light: DIQMTQSPSSLSASVGDRVTITCRASQDVSTAVAWYQQKPGKAPKLLIYSASFLYSGVPSRFSGSGSGTDFTLTISSLQPEDFATTYYCQQSYTGTVTFGQGTKVEIKRTVAAPDIQMTQSPSSLSASVGDRVTITCRASQVIRRSLAWYQQKPGKAPKLLIYAASNLASGVPSRFSGSGSGTDFTLTISSLQPEDFATYYCQQSNTSPLTFGQGTKVEIKRTVAAPSVFIFPPSDEQLKSGTASVVCLLNNFYPREAKVQWKVDNALQSGNSQESVTEQDSKDSTYSLSSTLTLSKADYEKHKVYACEVTHQGLSSPVTKSFNRGEC | 860 pM | 0.000257 s⁻¹ | 299000 M⁻¹ s⁻¹
4 | DVD533 (bispecific antibody, human IgG1, kappa, lambda, L234A L235A, DVD-Ig; N-term; AB073 (DLL4), C-term; AB071 (VEGF); HC linker short, LC linker long; also called DVD533H; DVD533L) heavy: not shown light: QAVVTQESALTTSPGETVTLTCRSSTGAVTTSNYANWVQEKPDHLFTGLIGGTNNRAPGVPARFSGSLIGDKAALTITGAQTEDEAIYFCALWYSNHWVFGGGTKLTVLGQPKAAPSVTLFPPDIQMTQSPSSLSASVGDRVTITCRASQVIRRSLAWYQQKPGKAPKLLIYAASNLASGVPSRFSGSGSGTDFTLTISSLQPEDFATYYCQQSNTSPLTFGQGTKVEIKRTVAAPSVFIFPPSDEQLKSGTASVVCLLNNFYPREAKVQWKVDNALQSGNSQESVTEQDSKDSTYSLSSTLTLSKADYEKHKVYACEVTHQGLSSPVTKSFNRGEC | 825 pM | 0.000501 s⁻¹ | 608000 M⁻¹ s⁻¹
5 | DVD491 (bispecific antibody, human IgG1, kappa, DVD-Ig; N-term; AB072 (DLL4), C-term; AB071 (VEGF); HC linker short, LC linker short; also called DVD491H; DVD491L) heavy: not shown light: DIQMTQSSSYLSVSLGGRVTITCKASDHINNWLAWYQQKPGNAPRLLISGATSLETGVPSRFSGSGSGKDYTLSITSLQTEDVATYYCQQYWSIPLTFGAGTKLELKRTVAAPDIQMTQSPSSLSASVGDRVTITCRASQVIRRSLAWYQQKPGKAPKLLIYAASNLASGVPSRFSGSGSGTDFTLTISSLQPEDFATYYCQQSNTSPLTFGQGTKVEIKRTVAAPSVFIFPPSDEQLKSGTASVVCLLNNFYPREAKVQWKVDNALQSGNSQESVTEQDSKDSTYSLSSTLTLSKADYEKHKVYACEVTHQGLSSPVTKSFNRGEC | 720 pM | 0.000245 s⁻¹ | 340000 M⁻¹ s⁻¹
6 | DVD463 (bispecific antibody, human IgG1, kappa, DVD-Ig; N-term; AB069 (DLL4), C-term; AB071 (VEGF); HC linker short, LC linker long; also called DVD463H; DVD463L) heavy: not shown light: DIVMTQSPDSLAVSLGERATISCRASESVDNYGISFMKWFQQKPGQPPKLLIYAASNQGSGVPDRFSGSGSGTDFTLTISSLQAEDVAVYYCQQSKEVPWTFGGGTKVEIKRTVAAPSVFIFPPDIQMTQSPSSLSASVGDRVTITCRASQVIRRSLAWYQQKPGKAPKLLIYAASNLASGVPSRFSGSGSGTDFTLTISSLQPEDFATYYCQQSNTSPLTFGQGTKVEIKRTVAAPSVFIFPPSDEQLKSGTASVVCLLNNFYPREAKVQWKVDNALQSGNSQESVTEQDSKDSTYSLSSTLTLSKADYEKHKVYACEVTHQGLSSPVTKSFNRGEC | 771 pM | 0.000479 s⁻¹ | 621000 M⁻¹ s⁻¹
7 | DVD445 (bispecific antibody, human IgG1, kappa, DVD-Ig; N-term; AB069 (DLL4), C-term; AB071 (VEGF); HC linker short, LC linker short; also called DVD445H; DVD445L) heavy: not shown light: DIVMTQSPDSLAVSLGERATISCRASESVDNYGISFMKWFQQKPGQPPKLLIYAASNQGSGVPDRFSGSGSGTDFTLTISSLQAEDVAVYYCQQSKEVPWTFGGGTKVEIKRTVAAPDIQMTQSPSSLSASVGDRVTITCRASQVIRRSLAWYQQKPGKAPKLLIYAASNLASGVPSRFSGSGSGTDFTLTISSLQPEDFATYYCQQSNTSPLTFGQGTKVEIKRTVAAPSVFIFPPSDEQLKSGTASVVCLLNNFYPREAKVQWKVDNALQSGNSQESVTEQDSKDSTYSLSSTLTLSKADYEKHKVYACEVTHQGLSSPVTKSFNRGEC | 272 pM | 1.8 s⁻¹ | 6.64e+09 M⁻¹ s⁻¹

Second part, the binder after the results:

Row | Kd | koff | kon | Binder
8 | 372 pM |  |  | DVD485 (bispecific antibody, human IgG1, kappa, DVD-Ig; N-term; AB015 (DLL4), C-term; AB071 (VEGF); HC linker short, LC linker long; also called DVD485H; DVD485L) heavy: not shown light: DIQMTQSPSSLSASVGDRVTITCRASQDVSTAVAWYQQKPGKAPKLLIYSASFLYSGVPSRFSGSGSGTDFTLTISSLQPEDFATTYYCQQSYTGTVTFGQGTKVEIKRTVAAPSVFIFPPDIQMTQSPSSLSASVGDRVTITCRASQVIRRSLAWYQQKPGKAPKLLIYAASNLASGVPSRFSGSGSGTDFTLTISSLQPEDFATYYCQQSNTSPLTFGQGTKVEIKRTVAAPSVFIFPPSDEQLKSGTASVVCLLNNFYPREAKVQWKVDNALQSGNSQESVTEQDSKDSTYSLSSTLTLSKADYEKHKVYACEVTHQGLSSPVTKSFNRGEC
9 | 668 pM | 8.37e-05 s⁻¹ | 125000 M⁻¹ s⁻¹ | DVD497 (bispecific antibody, human IgG1, kappa, DVD-Ig; N-term; AB072 (DLL4), C-term; AB071 (VEGF); HC linker long, LC linker long; also called DVD497H; DVD497L) heavy: not shown light: DIQMTQSSSYLSVSLGGRVTITCKASDHINNWLAWYQQKPGNAPRLLISGATSLETGVPSRFSGSGSGKDYTLSITSLQTEDVATYYCQQYWSIPLTFGAGTKLELKRTVAAPSVFIFPPDIQMTQSPSSLSASVGDRVTITCRASQVIRRSLAWYQQKPGKAPKLLIYAASNLASGVPSRFSGSGSGTDFTLTISSLQPEDFATYYCQQSNTSPLTFGQGTKVEIKRTVAAPSVFIFPPSDEQLKSGTASVVCLLNNFYPREAKVQWKVDNALQSGNSQESVTEQDSKDSTYSLSSTLTLSKADYEKHKVYACEVTHQGLSSPVTKSFNRGEC
10 | 842 pM | 0.000446 s⁻¹ | 529000 M⁻¹ s⁻¹ | DVD527 (bispecific antibody, human IgG1, kappa, DVD-Ig; N-term; AB073 (DLL4), C-term; AB071 (VEGF); HC linker long, LC linker short; also called DVD527H; DVD527L) heavy: not shown light: QAVVTQESALTTSPGETVTLTCRSSTGAVTTSNYANWVQEKPDHLFTGLIGGTNNRAPGVPARFSGSLIGDKAALTITGAQTEDEAIYFCALWYSNHWVFGGGTKLTVLGQPKAAPDIQMTQSPSSLSASVGDRVTITCRASQVIRRSLAWYQQKPGKAPKLLIYAASNLASGVPSRFSGSGSGTDFTLTISSLQPEDFATYYCQQSNTSPLTFGQGTKVEIKRTVAAPSVFIFPPSDEQLKSGTASVVCLLNNFYPREAKVQWKVDNALQSGNSQESVTEQDSKDSTYSLSSTLTLSKADYEKHKVYACEVTHQGLSSPVTKSFNRGEC
11 | 882 pM | 0.000588 s⁻¹ | 666000 M⁻¹ s⁻¹ | DVD521 (bispecific antibody, human IgG1, kappa, lambda, L234A L235A, DVD-Ig; N-term; AB073 (DLL4), C-term; AB071 (VEGF); HC linker long, LC linker long; also called DVD521H; DVD521L) heavy: not shown light: QAVVTQESALTTSPGETVTLTCRSSTGAVTTSNYANWVQEKPDHLFTGLIGGTNNRAPGVPARFSGSLIGDKAALTITGAQTEDEAIYFCALWYSNHWVFGGGTKLTVLGQPKAAPSVTLFPPDIQMTQSPSSLSASVGDRVTITCRASQVIRRSLAWYQQKPGKAPKLLIYAASNLASGVPSRFSGSGSGTDFTLTISSLQPEDFATYYCQQSNTSPLTFGQGTKVEIKRTVAAPSVFIFPPSDEQLKSGTASVVCLLNNFYPREAKVQWKVDNALQSGNSQESVTEQDSKDSTYSLSSTLTLSKADYEKHKVYACEVTHQGLSSPVTKSFNRGEC
12 | 466 pM | 0.000105 s⁻¹ | 226000 M⁻¹ s⁻¹ | DVD503 (bispecific antibody, human IgG1, kappa, DVD-Ig; N-term; AB072 (DLL4), C-term; AB071 (VEGF); HC linker long, LC linker short; also called DVD503H; DVD503L) heavy: not shown light: DIQMTQSSSYLSVSLGGRVTITCKASDHINNWLAWYQQKPGNAPRLLISGATSLETGVPSRFSGSGSGKDYTLSITSLQTEDVATYYCQQYWSIPLTFGAGTKLELKRTVAAPDIQMTQSPSSLSASVGDRVTITCRASQVIRRSLAWYQQKPGKAPKLLIYAASNLASGVPSRFSGSGSGTDFTLTISSLQPEDFATYYCQQSNTSPLTFGQGTKVEIKRTVAAPSVFIFPPSDEQLKSGTASVVCLLNNFYPREAKVQWKVDNALQSGNSQESVTEQDSKDSTYSLSSTLTLSKADYEKHKVYACEVTHQGLSSPVTKSFNRGEC
13 | 11.5 pM | 1.06e-06 s⁻¹ | 92200 M⁻¹ s⁻¹ | DVD451 (bispecific antibody, human IgG1, kappa, L234A L235A, DVD-Ig; N-term; AB069 (DLL4), C-term; AB071 (VEGF); HC linker long, LC linker long; also called DVD451H; DVD451L) heavy: not shown light: DIVMTQSPDSLAVSLGERATISCRASESVDNYGISFMKWFQQKPGQPPKLLIYAASNQGSGVPDRFSGSGSGTDFTLTISSLQAEDVAVYYCQQSKEVPWTFGGGTKVEIKRTVAAPSVFIFPPDIQMTQSPSSLSASVGDRVTITCRASQVIRRSLAWYQQKPGKAPKLLIYAASNLASGVPSRFSGSGSGTDFTLTISSLQPEDFATYYCQQSNTSPLTFGQGTKVEIKRTVAAPSVFIFPPSDEQLKSGTASVVCLLNNFYPREAKVQWKVDNALQSGNSQESVTEQDSKDSTYSLSSTLTLSKADYEKHKVYACEVTHQGLSSPVTKSFNRGEC
14 | 307 pM | 5.43e-05 s⁻¹ | 177000 M⁻¹ s⁻¹ | DVD457 (bispecific antibody, human IgG1, kappa, L234A L235A, DVD-Ig; N-term; AB069 (DLL4), C-term; AB071 (VEGF); HC linker long, LC linker short; also called DVD457H; DVD457L) heavy: not shown light: DIVMTQSPDSLAVSLGERATISCRASESVDNYGISFMKWFQQKPGQPPKLLIYAASNQGSGVPDRFSGSGSGTDFTLTISSLQAEDVAVYYCQQSKEVPWTFGGGTKVEIKRTVAAPDIQMTQSPSSLSASVGDRVTITCRASQVIRRSLAWYQQKPGKAPKLLIYAASNLASGVPSRFSGSGSGTDFTLTISSLQPEDFATYYCQQSNTSPLTFGQGTKVEIKRTVAAPSVFIFPPSDEQLKSGTASVVCLLNNFYPREAKVQWKVDNALQSGNSQESVTEQDSKDSTYSLSSTLTLSKADYEKHKVYACEVTHQGLSSPVTKSFNRGEC
